83 variants from the RNAGym collection of RNA variant scans (doi:10.1073/pnas.2313332121) can be followed below.

This sample holds only a part of the variants without activity.

B1: TPR 5TU (parent)
chain: GGAUCUUCUCGAUCUAACAAAAAAGACAAAUCUGCCACAAAGCUUGAGAGCAUCUUCGGAUGCAGAGGCGGCAGCCUUCGGUGGCGCGAUAGCGCCAACGUUCUCAACUAUGACACGCAAAACGCGUGCUCCGUUGAAUGGAGUUUAUCAUG

Variants of B1 are the subject of the data set. In words: polymerase ribozyme fitness, log enrichment relative to wild type (log ratio); higher = more active; in vitro selection for triplet polymerase activity. The method in brief: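 One round of in vitro selection, in triplicate, was applied to PCR-built, transcribed mutant libraries of each subunit of a heterodimeric triplet polymerase ribozyme. The steps were annealing with a biotinylated primer, partner subunit and triplets, incubation frozen at −7 °C, gel excision of extended constructs, streptavidin-bead capture and RT-PCR. Fitness is the logarithm, base 2, of genotype enrichment over wild-type enrichment from inverse-variance-weighted replicate averages of Illumina-sequenced inputs and outputs, keeping genotypes with ≥10 input reads and ≥1 read per output.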
Turning to A22C A24G A26U A52G G80A C85G G94U C123U, the “polymerase ribozyme fitness (log ratio)” value was at most -4.2.

Consider U13G U90G, for which the “polymerase ribozyme fitness (log ratio)” value was -4.04.

For A3C C10A G11U U55A G81C C85U G128A, the “polymerase ribozyme fitness (log ratio)” value was at most -4.2.

With A73G A89U, the “polymerase ribozyme fitness (log ratio)” value was -0.161.

For G11U A19C U55A G71A A91C G100A U109G A122U, the “polymerase ribozyme fitness (log ratio)” value is at most -4.2.

As for G42A U44G U56A G81C C85A G117U, the “polymerase ribozyme fitness (log ratio)” value is at most -4.2.

A19C U31C: the “polymerase ribozyme fitness (log ratio)” value worked out at 1.56.

Turning to C14A G83A C93G A107G, the “polymerase ribozyme fitness (log ratio)” value was at most -4.2.

As to A19U C57G, the “polymerase ribozyme fitness (log ratio)” value is -1.75.

As to U13A A52G G68C G80A U82G C95G C105U C114A U145G, the “polymerase ribozyme fitness (log ratio)” value is at most -4.2.

As to A39G C63G G70C C87U A91G C99A A120G, the “polymerase ribozyme fitness (log ratio)” value is at most -4.2.

Take A26U A28U C32A A52U A73U A91U G92A A113G U148A G152U: the “polymerase ribozyme fitness (log ratio)” value is at most -4.2.

As to A52C U111C A121C C123A U145A A150G, the “polymerase ribozyme fitness (log ratio)” value is -3.02.

With C75G C85U, the “polymerase ribozyme fitness (log ratio)” value was -3.58.

With G50U U56A G83A, the “polymerase ribozyme fitness (log ratio)” value is -0.268.

With G50U U55A G71U, the “polymerase ribozyme fitness (log ratio)” value was -3.35.

On to A12U A49C G100U U146G, for which the “polymerase ribozyme fitness (log ratio)” value is at most -4.2.

For the variant C38U C125A, the “polymerase ribozyme fitness (log ratio)” value is -0.6.

Turning to C14G A19U C87G U145A, the “polymerase ribozyme fitness (log ratio)” value was at most -4.2.

With A19U G84C, the “polymerase ribozyme fitness (log ratio)” value is -2.08.

Take U61A C96G U109A: the “polymerase ribozyme fitness (log ratio)” value was -3.32.

A12C C85U A142U: the “polymerase ribozyme fitness (log ratio)” value was -1.48.

Consider A39C G81A C99U C103G A107G C125U, for which the “polymerase ribozyme fitness (log ratio)” value was at most -4.2.

With U77G C93A G143A U146C, the “polymerase ribozyme fitness (log ratio)” value was at most -4.2.

Turning to A17C A21U G25U G84A, the “polymerase ribozyme fitness (log ratio)” value was -2.95.

In the case of U56A G58U C69U C95A C96A C118U, the “polymerase ribozyme fitness (log ratio)” value was -2.19.

In the case of C18G A37C C93A A115G, the “polymerase ribozyme fitness (log ratio)” value was -4.01.

On to C14G C35A A60G U130C U134C, for which the “polymerase ribozyme fitness (log ratio)” value was at most -4.2.

For the variant C18U U56A G83A U102A U144A, the “polymerase ribozyme fitness (log ratio)” value was -3.72.

On to C51U G94A, for which the “polymerase ribozyme fitness (log ratio)” value was -1.11.

Take A22C C76A A89G C95G: the “polymerase ribozyme fitness (log ratio)” value is -4.19.

For G83C A121U, the “polymerase ribozyme fitness (log ratio)” value was 0.406.

For U45A C51U G74A C95A U135G, the “polymerase ribozyme fitness (log ratio)” value is at most -4.2.

Consider A16U A23G U148A, for which the “polymerase ribozyme fitness (log ratio)” value is at most -4.2.

On to G59C G133U, for which the “polymerase ribozyme fitness (log ratio)” value was -3.47.

With U90G G140C, the “polymerase ribozyme fitness (log ratio)” value was at most -4.2.

Consider A21C A52U G74A G94C A121U, for which the “polymerase ribozyme fitness (log ratio)” value was at most -4.2.

As for G67A A98U U139C U148A, the “polymerase ribozyme fitness (log ratio)” value is at most -4.2.

Take C35U G92U C116U: the “polymerase ribozyme fitness (log ratio)” value was found to be 0.616.

Turning to U15C A19C C85U C87U, the “polymerase ribozyme fitness (log ratio)” value stood at 0.246.

Turning to C10A C95U, the “polymerase ribozyme fitness (log ratio)” value is -3.57.

With U31A A47C U56A C87U, the “polymerase ribozyme fitness (log ratio)” value was -0.397.

For A30U G50C C96U U104C G136U, the “polymerase ribozyme fitness (log ratio)” value is at most -4.2.

In the case of A21U C35U C43U U53A A60U G83C A98G A113G, the “polymerase ribozyme fitness (log ratio)” value was at most -4.2.

Consider C95A A120G A138G, for which the “polymerase ribozyme fitness (log ratio)” value was -2.96.

As for C8U A41C G46C G71A G83U C116G, the “polymerase ribozyme fitness (log ratio)” value is at most -4.2.

With U55A C125A, the “polymerase ribozyme fitness (log ratio)” value was -0.912.

As to G11U G74U G81U G88C A89G C95U G128U U148A, the “polymerase ribozyme fitness (log ratio)” value is at most -4.2.

As to C85G C118U, the “polymerase ribozyme fitness (log ratio)” value is -3.37.

Consider A19U C32A G84A G128U C131U A137G, for which the “polymerase ribozyme fitness (log ratio)” value is -3.73.

Turning to A20G A30U C95U, the “polymerase ribozyme fitness (log ratio)” value was -3.5.

U9G G25C A47G C87A G92U C114A: the “polymerase ribozyme fitness (log ratio)” value is at most -4.2.

For U9A A21U U55A C85G G112C U145A, the “polymerase ribozyme fitness (log ratio)” value is at most -4.2.

Consider A21C A37U C76U C87U, for which the “polymerase ribozyme fitness (log ratio)” value was -1.62.

Take A21C C51U A66G C85G: the “polymerase ribozyme fitness (log ratio)” value was at most -4.2.

For A30C G59A, the “polymerase ribozyme fitness (log ratio)” value was at most -4.2.

On to A41G U44A U55A, for which the “polymerase ribozyme fitness (log ratio)” value is -3.41.

As for A39G U56G G58C C79U U102A U127G, the “polymerase ribozyme fitness (log ratio)” value is at most -4.2.

With C118G A150G, the “polymerase ribozyme fitness (log ratio)” value was -2.14.

For A19G A26C U144G, the “polymerase ribozyme fitness (log ratio)” value is -2.17.

Regarding A22G C132G, the “polymerase ribozyme fitness (log ratio)” value is -3.69.

Turning to G48A, the “polymerase ribozyme fitness (log ratio)” value is -0.217.

Regarding A30U A106G, the “polymerase ribozyme fitness (log ratio)” value is -2.9.

Take A39C G71C U78A C95U A122G: the “polymerase ribozyme fitness (log ratio)” value is at most -4.2.

Regarding G59A G88U, the “polymerase ribozyme fitness (log ratio)” value was -3.96.

Consider G11C C51U C85U G140C, for which the “polymerase ribozyme fitness (log ratio)” value is at most -4.2.

With A60U C93U, the “polymerase ribozyme fitness (log ratio)” value is -3.16.

Regarding U7G G74A C103A, the “polymerase ribozyme fitness (log ratio)” value is at most -4.2.

Turning to A49C C57U U101G, the “polymerase ribozyme fitness (log ratio)” value was -2.69.

On to A60G A115G U144C U146A A150U, for which the “polymerase ribozyme fitness (log ratio)” value was -3.85.

On to C14U C79A G84A A150G, for which the “polymerase ribozyme fitness (log ratio)” value was at most -4.2.

As to U13C C87A, the “polymerase ribozyme fitness (log ratio)” value is at most -4.2.

As to C35U A89U C95A G126A A142C, the “polymerase ribozyme fitness (log ratio)” value is at most -4.2.

For G83A A97C U104A G136A, the “polymerase ribozyme fitness (log ratio)” value is -1.39.

Regarding C10A A20G A41G G46A A47C C57U C85G G133U, the “polymerase ribozyme fitness (log ratio)” value was at most -4.2.

For A20G A52U C57A G62U C95A G133C A150U, the “polymerase ribozyme fitness (log ratio)” value is -1.8.

Turning to G46A C87U A89C G94A A113C, the “polymerase ribozyme fitness (log ratio)” value is at most -4.2.

For G70C G83C C105U C125U, the “polymerase ribozyme fitness (log ratio)” value is at most -4.2.

As for A22U A49U, the “polymerase ribozyme fitness (log ratio)” value was -0.913.

As to U53A C93A, the “polymerase ribozyme fitness (log ratio)” value was -3.27.

For the variant A12G U56A C76A G143U, the “polymerase ribozyme fitness (log ratio)” value was -3.46.

For C63G C93A A98G C116U G140C, the “polymerase ribozyme fitness (log ratio)” value was at most -4.2.

For the variant G58A A64U G74A C79A U90C C96A C149A, the “polymerase ribozyme fitness (log ratio)” value is at most -4.2.
